Reference: patent publication US20230248799A1, “COMBINATION THERAPY OF SUBSTANCE-P FOR MOBILIZATION OF HEMATOPOIETIC STEM CELLS” (ELPHIS CELL THERAPEUTICS, priority 2020, published 2023)

Experiments:
[1] = system: immune cells in the blood; assay: Effect of SP on blood immune cells (CBC count, percentages in total leukocytes); settings: rabbits, G-CSF 10 µg/kg intravenous twice; day 2
Protocol: To confirm the effect of SP on the percentage of immune cells in blood, five (5) rabbits were prepared for each group. After administering SP (6.7 µg/kg) via ear vein twice, the percentages of immune cells in the blood of the same animals were compared for 3 days. G-CSF (10 µg/kg, JW Pham) was used at a conventional clinical dose and treated with the same regimen as that of SP (i.e., intravenous administration). After the administration, 1 ml of the blood was collected at one-day intervals, transferred to a tube containing EDTA and analyzed by using a diagnostic device.

[2] = system: hematopoietic stem cells in the blood; assay: Mobilization of hematopoietic stem cells by SP alone (HSC-CFU colony count of blood cells); type: in vivo; settings: rabbits; for level of hematopoietic stem cells in blood on the basis of 1X on day 0: intravenous (ear vein) twice, SP 6.7 µg/kg, G-CSF 10 µg/kg
Protocol: In order to confirm the effect of the drug administered in a normal physiological state alone, the effect of SP was tested using a normal group without wounds. This is because, in the case of injured animals, there are many other factors secreted by the wounds, and, thus, it is difficult to differentiate such factors from the effect of the administered drug, and especially because both SP and G-CSF are endogenous substances in the body.
To confirm the effect of SP alone on mobilization of hematopoietic stem cell, five (5) rabbits were prepared for each group. SP (6.7 µg/kg, sigma Aldrich) was administered twice via Ear vein, and the levels of hematopoietic stem cells in the blood of the same animals for 3 days were compared.
After injection of the drug, 5 ml of blood was collected once a day, put into a 15 ml tube (Falcon), and diluted twice by adding PBS (Welgene). To isolate blood cells, each of 5 ml Ficoll-Paque (Amersham) was placed in a new tube, and diluted blood was placed on top of it. The tubes were carefully handled so as not to mix the Ficoll layer and blood layer, and, after the blood layers were completely put in the tubes, centrifugation (813 g, Megafuge 8R, Thermo Scientific) was performed for 20 minutes. After centrifugation, the layers were separated, resulting in a total of four layers. The uppermost layer was plasma, the second layer was the blood cell layer excluding erythrocytes, the third layer was Ficoll, and the bottom layer was the erythrocyte layer. Among them, only the blood cell layer was separated and put into a tube, and PBS was then added thereto to centrifuge same. 5×10^6 blood cells were placed in a 35 mm plate and cultured in HSC-CFU media (Hematopoietic stem cells-colony forming unit media, purchased from Miltenyi). While the cells were cultured in the initial state for 2 weeks without exchanging the media, the number of colonies was observed every day and finally counted.

B1: G-CSF: recombinant granulocyte colony stimulating factor, a glycoprotein stimulating neutrophil progenitor cells and mature neutrophils (protein, UniProt P09919 31-207, looked up)
Granulocyte …: TPLGPASSLPQSFLLKCLEQVRKIQGDGAALQEKLVSECATYKLCHPEELVLLGHSLGIPWAPLSSCPSQALQLAGCLSQLHSGLFLYQGLLQALEGISPELGPTLDTLQLDVADFATTIWQQMEELGMAPALQPTQGAMPAFASAFQRRAGGVLVASHLQSFLEVSYRVLRHLAQP
increase of the percentage of neutrophils in the blood [1]: about 65%
level of hematopoietic stem cells in blood on the basis of 1X on day 0 ([2]; day 1): 2 X
level of hematopoietic stem cells in blood on the basis of 1X on day 0 ([2]; day 2): 2.5 X
level of hematopoietic stem cells in blood on the basis of 1X on day 0 ([2]; day 3): 0.6 X
effect on mobilization of hematopoietic stem cells (in words) ([2]; intravenous twice, followed for 3 days, FIG. 1): negligible effect on mobilization of hematopoietic stem cells
